Data from IntAct's records for PubMed 23123112.

B1: Protein SLM4 (Saccharomyces cerevisiae), P38247 (parent)
chain: MVMLHSKNVKGFLENTLKPYDLHSVDFKTSSLQSSMIITATNGGILSYATSNNDVPKNSINEINSVNNLKMMSLLIKDKWSEDENDTEEQHSNSCYPVEIDSFKTKIYTYEMEDLHTCVAQIPNSDLLLLFIAEGSFPYGLLVIKIERAMRELTDLFGYKLG
partner: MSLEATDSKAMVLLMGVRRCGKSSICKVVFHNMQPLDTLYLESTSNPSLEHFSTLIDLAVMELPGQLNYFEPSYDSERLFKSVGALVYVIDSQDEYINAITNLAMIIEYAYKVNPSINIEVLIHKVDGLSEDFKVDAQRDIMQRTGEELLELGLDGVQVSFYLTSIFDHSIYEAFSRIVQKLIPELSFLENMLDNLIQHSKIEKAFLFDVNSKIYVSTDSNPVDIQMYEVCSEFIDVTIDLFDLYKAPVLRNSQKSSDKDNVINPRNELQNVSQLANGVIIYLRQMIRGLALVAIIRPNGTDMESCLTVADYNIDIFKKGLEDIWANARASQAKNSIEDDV
B2: Protein SLM4 (Saccharomyces cerevisiae), P38247 (parent)
chain: B1 chain
partner: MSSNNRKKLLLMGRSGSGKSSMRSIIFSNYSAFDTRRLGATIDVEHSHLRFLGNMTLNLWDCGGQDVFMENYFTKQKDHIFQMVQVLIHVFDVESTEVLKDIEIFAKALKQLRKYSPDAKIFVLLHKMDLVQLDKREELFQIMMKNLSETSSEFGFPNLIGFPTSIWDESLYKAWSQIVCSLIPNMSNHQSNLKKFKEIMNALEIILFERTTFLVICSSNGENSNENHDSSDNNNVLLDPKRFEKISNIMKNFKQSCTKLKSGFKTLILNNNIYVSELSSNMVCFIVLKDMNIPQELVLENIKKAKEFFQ

Variants of: B1
Settings: with ragcd_yeast GTR2, P53290

Variant	effect of a mutation on the interaction
N67A;N68A;K70A;M71A	decreasing interaction strength

Variants of: B2
Settings: with ragab_yeast GTR1, Q00582

Variant	effect of a mutation on the interaction
N67A;N68A;K70A;M71A	decreasing interaction strength
